Measured values from IntAct's records for PubMed 35512704.

B1: Mothers against decapentaplegic homolog 4 (Homo sapiens), Q13485 (parent)
chain: MDNMSITNTPTSNDACLSIVHSLMCHRQGGESETFAKRAIESLVKKLKEKKDELDSLITAITTNGAHPSKCVTIQRTLDGRLQVAGRKGFPHVIYARLWRWPDLHKNELKHVKYCQYAFDLKCDSVCVNPYHYERVVSPGIDLSGLTLQSNAPSSMMVKDEYVHDFEGQPSLSTEGHSIQTIQHPPSNRASTETYSTPALLAPSESNATSTANFPNIPVASTSQPASILGGSHSEGLLQIASGPQPGQQQNGFTGQPATYHHNSTTTWTGSRTAPYTPNLPHHQNGHLQHHPPMPPHPGHYWPVHNELAFQPPISNHPAPEYWCSIAYFEMDVQVGETFKVPSSCPIVTVDGYVDPSGGDRFCLGQLSNVHRTEAIERARLHIGKGVQLECKGEGDVWVRCLSDHAVFVQSYYLDREAGRAPGDAVHKIYPSAYIKVFDLRQCHRQMQQQAATAQAAAAAQAAAVAGNIPGPGSVGGIAPAISLSAAAGIGVDDLRRLCILRMSFVKGWGPDYPRQSIKETPCWIEIHLHRALQLLDEVLHTMPIADPQPLD
partner: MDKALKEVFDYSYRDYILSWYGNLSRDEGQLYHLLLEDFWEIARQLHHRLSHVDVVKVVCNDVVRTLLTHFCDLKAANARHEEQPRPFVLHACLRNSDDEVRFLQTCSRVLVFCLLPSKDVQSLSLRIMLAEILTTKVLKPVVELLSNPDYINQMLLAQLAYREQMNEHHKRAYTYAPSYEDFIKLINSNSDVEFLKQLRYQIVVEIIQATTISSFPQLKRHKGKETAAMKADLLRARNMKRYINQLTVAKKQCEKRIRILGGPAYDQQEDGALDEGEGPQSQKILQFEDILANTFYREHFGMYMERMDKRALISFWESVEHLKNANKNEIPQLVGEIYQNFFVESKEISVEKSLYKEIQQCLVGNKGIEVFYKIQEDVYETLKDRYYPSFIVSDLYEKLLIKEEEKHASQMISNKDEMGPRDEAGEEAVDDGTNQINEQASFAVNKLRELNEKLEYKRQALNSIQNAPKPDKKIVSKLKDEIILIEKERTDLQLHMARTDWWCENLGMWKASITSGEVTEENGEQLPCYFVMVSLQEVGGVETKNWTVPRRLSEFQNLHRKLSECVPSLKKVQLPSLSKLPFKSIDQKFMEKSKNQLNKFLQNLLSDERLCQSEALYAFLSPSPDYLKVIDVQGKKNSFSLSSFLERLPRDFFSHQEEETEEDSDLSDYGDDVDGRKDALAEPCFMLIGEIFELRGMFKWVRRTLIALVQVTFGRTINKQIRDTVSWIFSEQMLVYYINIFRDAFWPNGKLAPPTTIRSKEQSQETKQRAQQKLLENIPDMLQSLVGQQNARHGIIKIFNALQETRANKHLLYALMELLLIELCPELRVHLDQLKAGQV
B2: Mothers against decapentaplegic homolog 4 (Homo sapiens), Q13485 (parent)
chain: B1 chain
partner: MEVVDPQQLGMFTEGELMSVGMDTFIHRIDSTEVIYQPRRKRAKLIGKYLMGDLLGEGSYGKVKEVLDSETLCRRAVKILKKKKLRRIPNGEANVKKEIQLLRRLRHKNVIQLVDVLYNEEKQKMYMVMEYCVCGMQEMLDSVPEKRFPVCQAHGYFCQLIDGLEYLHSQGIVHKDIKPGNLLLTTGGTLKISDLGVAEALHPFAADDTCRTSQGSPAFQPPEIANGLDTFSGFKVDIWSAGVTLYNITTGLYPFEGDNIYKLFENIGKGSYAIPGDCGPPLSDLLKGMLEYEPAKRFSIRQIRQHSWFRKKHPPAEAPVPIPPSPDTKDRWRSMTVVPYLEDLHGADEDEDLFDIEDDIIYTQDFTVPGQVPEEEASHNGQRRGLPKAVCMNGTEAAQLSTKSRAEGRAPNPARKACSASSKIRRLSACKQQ
B3: Mothers against decapentaplegic homolog 4 (Homo sapiens), Q13485 (parent)
chain: B1 chain
partner: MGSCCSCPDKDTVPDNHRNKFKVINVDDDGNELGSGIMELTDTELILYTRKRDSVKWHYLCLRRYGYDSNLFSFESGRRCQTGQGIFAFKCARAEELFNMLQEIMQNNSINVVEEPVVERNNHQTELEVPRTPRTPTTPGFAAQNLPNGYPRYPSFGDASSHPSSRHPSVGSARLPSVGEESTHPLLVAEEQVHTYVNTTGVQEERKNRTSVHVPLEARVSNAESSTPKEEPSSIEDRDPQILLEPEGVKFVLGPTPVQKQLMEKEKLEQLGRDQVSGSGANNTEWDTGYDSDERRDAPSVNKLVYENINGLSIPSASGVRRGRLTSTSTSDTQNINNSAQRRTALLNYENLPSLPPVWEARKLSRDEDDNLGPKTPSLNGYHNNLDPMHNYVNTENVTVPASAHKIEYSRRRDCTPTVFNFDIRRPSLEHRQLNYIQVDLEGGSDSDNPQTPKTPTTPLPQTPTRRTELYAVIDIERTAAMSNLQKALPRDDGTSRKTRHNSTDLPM
B4: Speckle-type POZ protein (Homo sapiens), O43791 (parent)
chain: MSRVPSPPPPAEMSSGPVAESWCYTQIKVVKFSYMWTINNFSFCREEMGEVIKSSTFSSGANDKLKWCLRVNPKGLDEESKDYLSLYLLLVSCPKSEVRAKFKFSILNAKGEETKAMESQRAYRFVQGKDWGFKKFIRRDFLLDEANGLLPDDKLTLFCEVSVVQDSVNISGQNTMNMVKVPECRLADELGGLWENSRFTDCCLCVAGQEFQAHKAILAARSPVFSAMFEHEMEESKKNRVEINDVEPEVFKEMMCFIYTGKAPNLDKMADDLLAAADKYALERLKVMCEDALCSNLSVENAAEILILADLHSADQLKTQAVDFINYHASDVLETSGWKSMVVSHPHLVAEAYRSLASAQCPFLGPPRKRLKQS
partner: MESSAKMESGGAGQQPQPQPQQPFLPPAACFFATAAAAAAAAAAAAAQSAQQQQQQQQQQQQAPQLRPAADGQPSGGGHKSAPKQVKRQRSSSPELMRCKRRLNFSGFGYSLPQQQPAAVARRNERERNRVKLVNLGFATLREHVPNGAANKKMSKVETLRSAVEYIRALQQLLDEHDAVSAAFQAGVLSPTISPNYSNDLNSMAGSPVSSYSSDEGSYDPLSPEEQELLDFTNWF

Variants of: B1
Conditions: with snx25_human SNX25, Q9H3E2

**Q.** With R361H as the variant, how does the “effect of a mutation on the interaction” value read?
**A.** with no effect

Variants of: B1
Conditions: with snx25_human SNX25, Q9H3E2
Remark: another data set of the same source

**Q.** For G386D, which “effect of a mutation on the interaction” value is on record?
**A.** with no effect

Variants of: B2
Conditions: with stk11_human STK11, Q15831

**Q.** For G386D, which “effect of a mutation on the interaction” value is on record?
**A.** with no effect

Variants of: B3
Conditions: with frs2_human FRS2, Q8WU20

**Q.** Which “effect of a mutation on the interaction” value does the source give for R361H here?
**A.** with no effect

Variants of: B3
Conditions: with frs2_human FRS2, Q8WU20
Remark: another data set of the same source

**Q.** With R361C as the variant, how does the “effect of a mutation on the interaction” value read?
**A.** with no effect

Variants of: B4
Conditions: with ascl1_human ASCL1, P50553

**Q.** For MSRVPSPPPPAEMSSGPVAESWCYTQIKVVKFSYMWTINNFSFCREEMGEVIKSSTFSSGANDKLKWCLRVNPKGLDEESKDYLSLCLLLVSCPKSEVRAKFKFSILNAKGEETKAMESQRAYRFVQGKDWGFKKFIRRDFLLDEANGLLPDDKLTLFCEVSVVQDSVNISGQNTMNMVKVPECRLADELGGLWENSRFTDCCLCVAGQEFQAHKAILAARSPVFSAMFEHEMEESKKNRVEINDVEPEVFKEMMCFIYTGKAPNLDKMADDLLAAADKYALERLKVMCEDALCSNLSVENAAEILILADLHSADQLKTQAVDFINYHASDVLETSGWKSMVVSHPHLVAEAYRSLASAQCPFLGPPRKRLKQS [Y87C], which “effect of a mutation on the interaction” value is on record?
**A.** with no effect

Variants of: B4
Conditions: with ascl1_human ASCL1, P50553
Remark: another data set of the same source

**Q.** How did the “effect of a mutation on the interaction” value turn out when MSRVPSPPPPAEMSSGPVAESWCYTQIKVVKFSYMWTINNFSFCREEMGEVIKSSTFSSGANDKLKWCLRVNPKGLDEESKDYLSLYLLLVSCPKSEVRAKFKFSILNAKGEETKAMESQRAYRFVQGKDWGLKKFIRRDFLLDEANGLLPDDKLTLFCEVSVVQDSVNISGQNTMNMVKVPECRLADELGGLWENSRFTDCCLCVAGQEFQAHKAILAARSPVFSAMFEHEMEESKKNRVEINDVEPEVFKEMMCFIYTGKAPNLDKMADDLLAAADKYALERLKVMCEDALCSNLSVENAAEILILADLHSADQLKTQAVDFINYHASDVLETSGWKSMVVSHPHLVAEAYRSLASAQCPFLGPPRKRLKQS [F133L] was run?
**A.** with no effect

Variants of: B4
Conditions: with ascl1_human ASCL1, P50553
Remark: another data set of the same source

**Q.** Which “effect of a mutation on the interaction” value does the source give for MSRVPSPPPPAEMSSGPVAESWCYTQIKVVKFSYMWTINNFSFCREEMGEVIKSSTFSSGANDKLKWCLRVNPKGLDEESKDYLSLYLLLVSCPKSEVRAKFKFSILNAKGEETKAMESQRAYRFVQGKDWGVKKFIRRDFLLDEANGLLPDDKLTLFCEVSVVQDSVNISGQNTMNMVKVPECRLADELGGLWENSRFTDCCLCVAGQEFQAHKAILAARSPVFSAMFEHEMEESKKNRVEINDVEPEVFKEMMCFIYTGKAPNLDKMADDLLAAADKYALERLKVMCEDALCSNLSVENAAEILILADLHSADQLKTQAVDFINYHASDVLETSGWKSMVVSHPHLVAEAYRSLASAQCPFLGPPRKRLKQS [F133V] here?
**A.** with no effect

Variants of: B4
Conditions: with ascl1_human ASCL1, P50553
Remark: another data set of the same source

**Q.** How did the “effect of a mutation on the interaction” value turn out when MSRVPSPPPPAEMSSGPVAESWCYTQIKVVKFSYMWTINNFSFCREEMGEVIKSSTFSSGANDKLKWCLRVNPKGLDEESKDYLSLYLLLVSCPKSEVRAKCKFSILNAKGEETKAMESQRAYRFVQGKDWGFKKFIRRDFLLDEANGLLPDDKLTLFCEVSVVQDSVNISGQNTMNMVKVPECRLADELGGLWENSRFTDCCLCVAGQEFQAHKAILAARSPVFSAMFEHEMEESKKNRVEINDVEPEVFKEMMCFIYTGKAPNLDKMADDLLAAADKYALERLKVMCEDALCSNLSVENAAEILILADLHSADQLKTQAVDFINYHASDVLETSGWKSMVVSHPHLVAEAYRSLASAQCPFLGPPRKRLKQS [F102C] was run?
**A.** with no effect
